Reference: article PMC9817130, “Structural insights into broadly neutralizing antibodies elicited by hybrid immunity against SARS-CoV-2” (Emerging Microbes & Infections, 2023)

Target: T1, SARS-CoV-2 WT RBD protein (Sino Biological) (SARS-CoV-2 WT, UniProt P0DTC2)
T1 construct: also called viral RBD; immobilized RBD
Experiment: SPR
Details: both partners purified

B1: LY-CoV1404 (Bebtelovimab) (antibody, V domains shown)
VH: QITLKESGPTLVKPTQTLTLTCTFSGFSLSISGVGVGWLRQPPGKALEWLALIYWDDDKRYSPSLKSRLTISKDTSKNQVVLKMTNIDPVDTATYYCAHHSISTIFDHWGQGTLVTVSS
VL: QSALTQPASVSGSPGQSITISCTATSSDVGDYNYVSWYQQHPGKAPKLMIFEVSDRPSGISNRFSGSKSGNTASLTISGLQAEDEADYYCSSYTTSSAVFGGGTKLTVL
notes: also called class III LY-CoV1404
- binding result: binds
